Laboratory results taken from doi:10.1101/2025.05.22.653117.

Tests used:
[1] = molecular target: MbTEC^PH (R28E) (Monosiga brevicollis); assay: FP; details: domain or fragment
[2] = molecular target: MbTEC^PH (R28E) (Monosiga brevicollis); assay: fluorescence polarisation
[3] = molecular target: MbTEC^PH (isolated PH domain of Monosiga brevicollis TEC), wild type, labeled with Atto488 (Monosiga brevicollis); assay: fluorescence polarisation

Substance | Kd [1] | fold weakening against wild-type MbTEC^PH [2] | Kd [3]
MbTEC^32K (SH3-SH2-kinase module of Monosiga brevicollis TEC), wild type | 22.4 µM | – | –
MbTEC^32K (SH3-SH2-kinase module of Monosiga brevicollis TEC), wild type (domain or fragment) | – | 5 fold | 4 µM
